B1: INTS4 (parent)
chain: YSSGEFSSGRKWGDDAPKEEVDTG
B2: NET1 (parent)
chain: PTPAKRRSSALWSEMLDITMKESL

Variants of: B1
Assay: protein stability index of a GFP-peptide fusion (GPS, HEK-293T) (PSI 1-6); higher = more stable
Settings: c terminus: a fixed tail appended
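Also: lentivirally expressed fusions sorted by FACS into six bins by GFP to DsRed ratio, PSI derived from sequencing read proportions per bin multiplied by bin number.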

Row | Variant | protein stability index
1 | YSSGEFSSGRKWGDDAPKEEVDTF | 2.63
2 | YSSGEFSSGRKWGDDAPKEEVDTK | 3.9
3 | YSSGEFSSGRKWGDDAPKEEVDTY | 2.28
4 | YSSGEFSSGRKWGDDAPKEEVDTM | 2.68
5 | YSSGEFSSGRKWGDDAPKEEVDTI | 2.25
6 | YSSGEFSSGRKWGDDAPKEEVDTR | 2.83
7 | YSSGEFSSGRKWGDDAPKEEVDTC | 2.96
8 | YSSGEFSSGRKWGDDAPKEEVDTS | 2.65
9 | YSSGEFSSGRKWGDDAPKEEVDTL | 2.76
10 | YSSGEFSSGRKWGDDAPKEEVDTE | 2.74
11 | YSSGEFSSGRKWGDDAPKEEVDTV | 2.72
12 | YSSGEFSSGRKWGDDAPKEEVDTQ | 2.58
13 | YSSGEFSSGRKWGDDAPKEEVDTT | 2.72
14 | YSSGEFSSGRKWGDDAPKEEVDTP | 2.4
15 | YSSGEFSSGRKWGDDAPKEEVDTD | 2.16
16 | YSSGEFSSGRKWGDDAPKEEVDTA | 2.59
17 | YSSGEFSSGRKWGDDAPKEEVDTN | 3.09

Row | Variant | protein stability index
18 | YSSGEFSSGRKWGDDAPKEEVDTH | 2.51
19 | YSSGEFSSGRKWGDDAPKEEVDHG | 2.35
20 | YSSGEFSSGRKWGDDAPKEEVDYG | 2.36
21 | YSSGEFSSGRKWGDDAPKEEVDRG | 2.96
22 | YSSGEFSSGRKWGDDAPKEEVDWG | 2.05
23 | YSSGEFSSGRKWGDDAPKEEVDPG | 1.9
24 | YSSGEFSSGRKWGDDAPKEEVDVG | 2.39
25 | YSSGEFSSGRKWGDDAPKEEVDIG | 2.3
26 | YSSGEFSSGRKWGDDAPKEEVDLG | 2.9
27 | YSSGEFSSGRKWGDDAPKEEVDFG | 2.47
28 | YSSGEFSSGRKWGDDAPKEEVDGG | 2.81
29 | YSSGEFSSGRKWGDDAPKEEVDSG | 2.67
30 | YSSGEFSSGRKWGDDAPKEEVDKG | 2.46
31 | YSSGEFSSGRKWGDDAPKEEVDNG | 2.35
32 | YSSGEFSSGRKWGDDAPKEEVDEG | 2.8
33 | YSSGEFSSGRKWGDDAPKEEVDQG | 2.15
34 | YSSGEFSSGRKWGDDAPKEEVDMG | 1.99

Variants of: B2
Assay: as above
Settings: c terminus: a fixed tail appended

Row | Variant | protein stability index
35 | PTPAKRRSEALWSEMLDITMKESL | 2.4
36 | PTPAKRRSFALWSEMLDITMKESL | 2.05
37 | PTPAKRRSGALWSEMLDITMKESL | 2.79
38 | PTPAKRRSQALWSEMLDITMKESL | 2.34
39 | PTPAKRRSNALWSEMLDITMKESL | 2.21
40 | PTPAKRRSKALWSEMLDITMKESL | 1.64
41 | PTPAKRRSTALWSEMLDITMKESL | 1.57
42 | PTPAKRRSAALWSEMLDITMKESL | 2.2
43 | PTPAKRRSCALWSEMLDITMKESL | 1.47
44 | PTPAKRRSIALWSEMLDITMKESL | 1.86
45 | PTPAKRRSVALWSEMLDITMKESL | 1.88
46 | PTPAKRRSSKLWSEMLDITMKESL | 2.83
47 | PTPAKRRSSGLWSEMLDITMKESL | 3.48
48 | PTPAKRRSSDLWSEMLDITMKESL | 3.58
49 | PTPAKRRSSSLWSEMLDITMKESL | 2.1
50 | PTPAKRRSSLLWSEMLDITMKESL | 2.55
51 | PTPAKRRSSCLWSEMLDITMKESL | 2.18
52 | PTPAKRRSSFLWSEMLDITMKESL | 2.02
53 | PTPAKRRSSNLWSEMLDITMKESL | 2.67
54 | PTPAKRRSSELWSEMLDITMKESL | 2.35

Row | Variant | protein stability index
55 | PTPAKRRSSTLWSEMLDITMKESL | 2.52
56 | PTPAKRRSSHLWSEMLDITMKESL | 2.31
57 | PTPAKRRSSMLWSEMLDITMKESL | 2.14
58 | PTPAKRRSSVLWSEMLDITMKESL | 1.58
59 | PTPAKRRSSPLWSEMLDITMKESL | 2
60 | PTPAKARSSALWSEMLDITMKESL | 3.48
61 | PTPAKLRSSALWSEMLDITMKESL | 1.99
62 | PTPAKHRSSALWSEMLDITMKESL | 4.19
63 | PTPAKWRSSALWSEMLDITMKESL | 1.99
64 | PTPAKTRSSALWSEMLDITMKESL | 1.76
65 | PTPAKFRSSALWSEMLDITMKESL | 1.85
66 | PTPAKMRSSALWSEMLDITMKESL | 2.56
67 | PTPAKVRSSALWSEMLDITMKESL | 1.64
68 | PTPAKNRSSALWSEMLDITMKESL | 2.51
69 | PTPAKSRSSALWSEMLDITMKESL | 2.42
70 | PTPAKKRSSALWSEMLDITMKESL | 2.1
71 | PTPAKIRSSALWSEMLDITMKESL | 1.84
72 | PTPAKDRSSALWSEMLDITMKESL | 2.79
73 | PTPAKPRSSALWSEMLDITMKESL | 2.02
74 | PTPAKCRSSALWSEMLDITMKESL | 1.98

Row | Variant | protein stability index
75 | PTPAKERSSALWSEMLDITMKESL | 3.25
76 | PTPAGRRSSALWSEMLDITMKESL | 2.59
77 | PTPAERRSSALWSEMLDITMKESL | 2.54
78 | PTPAIRRSSALWSEMLDITMKESL | 2.42
79 | PTPAMRRSSALWSEMLDITMKESL | 2.06
80 | PTPAARRSSALWSEMLDITMKESL | 2.34
81 | PTPASRRSSALWSEMLDITMKESL | 2.19
82 | PTPAVRRSSALWSEMLDITMKESL | 2.41
83 | PTPACRRSSALWSEMLDITMKESL | 2.38
84 | PTPANRRSSALWSEMLDITMKESL | 2.52
85 | PTPAWRRSSALWSEMLDITMKESL | 1.54
86 | PTPATRRSSALWSEMLDITMKESL | 2.51
87 | PTPAHRRSSALWSEMLDITMKESL | 2.55
88 | PTPADRRSSALWSEMLDITMKESL | 2.95
89 | PTPARRRSSALWSEMLDITMKESL | 2.53
90 | LTPAKRRSSALWSEMLDITMKESL | 2.25
91 | VTPAKRRSSALWSEMLDITMKESL | 2.63
92 | DTPAKRRSSALWSEMLDITMKESL | 2.12
93 | NTPAKRRSSALWSEMLDITMKESL | 2.33
94 | GTPAKRRSSALWSEMLDITMKESL | 2.28

— the supplement of paper PMC10567573
